Patent publication US20200317768A1

Columns and labels:
[1] = target: human FcγRIIIaV extracellular domain, C-terminal His-tag (human) (UniProt P08637); assay: SPR 25C; FcgR bound per captured antibody, relative to parent B3
[2] = target: human FcγRIIaR extracellular domain, C-terminal His-tag (human) (UniProt P12318); assay: as above
Chain of human FcγRIIaR extracellular domain, C-terminal His-tag (human) (P12318 34-217 H167R): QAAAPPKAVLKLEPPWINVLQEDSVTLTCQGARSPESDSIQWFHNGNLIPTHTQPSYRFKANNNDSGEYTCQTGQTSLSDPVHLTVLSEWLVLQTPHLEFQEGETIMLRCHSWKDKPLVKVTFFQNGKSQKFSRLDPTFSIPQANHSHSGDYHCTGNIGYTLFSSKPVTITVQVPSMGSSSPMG

GpH7-B3 variant V266F/GpL16-k0 (antibody)
Binding to human FcgRs (parent B3 = 100) (parent B3 = 100) [1]: 2
Binding to human FcgRs (parent B3 = 100) (parent B3 = 100) [2]: 8
